Assay results taken from PMC11804915, “Single-stranded DNA binding to the transcription factor PafBC triggers the mycobacterial DNA damage response”.

Legend:
[1] = biological target: T1, PafBC WT (Mycobacterium smegmatis, UniProt A4ZHT0;A0QZ41 1-331;1-318); test: analytical gel filtration; ssDNA:PafBC stoichiometry ~1:1; ssDNA EMSA: 22.5 mM Hepes-KOH pH 7.8, 135 mM NaCl, 20 mM KCl, 5 mM MgCl2, 1 mM DTT, 37 C 15 min, 10 nM DNA, 0-16 uM PafBC; RNAP EMSA: 20 mM Hepes-NaOH pH 8, 100 mM K-acetate, 36 mM NaCl, 10 mM MgCl2, 2 mM DTT, 37 C 30 min; details: protein: recombinant; tags: C-terminal Strep on PafC; copies: 1;1; single strand
T1 sequence 1: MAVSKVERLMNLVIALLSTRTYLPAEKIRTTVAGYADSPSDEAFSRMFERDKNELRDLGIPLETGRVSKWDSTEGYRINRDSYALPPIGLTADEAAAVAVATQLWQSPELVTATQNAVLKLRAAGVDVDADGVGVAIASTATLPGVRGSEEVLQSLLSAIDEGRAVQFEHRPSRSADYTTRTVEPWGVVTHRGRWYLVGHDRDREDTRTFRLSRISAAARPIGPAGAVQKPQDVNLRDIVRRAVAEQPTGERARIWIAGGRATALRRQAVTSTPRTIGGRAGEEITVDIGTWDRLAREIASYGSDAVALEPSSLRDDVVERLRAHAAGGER
T1 sequence 2: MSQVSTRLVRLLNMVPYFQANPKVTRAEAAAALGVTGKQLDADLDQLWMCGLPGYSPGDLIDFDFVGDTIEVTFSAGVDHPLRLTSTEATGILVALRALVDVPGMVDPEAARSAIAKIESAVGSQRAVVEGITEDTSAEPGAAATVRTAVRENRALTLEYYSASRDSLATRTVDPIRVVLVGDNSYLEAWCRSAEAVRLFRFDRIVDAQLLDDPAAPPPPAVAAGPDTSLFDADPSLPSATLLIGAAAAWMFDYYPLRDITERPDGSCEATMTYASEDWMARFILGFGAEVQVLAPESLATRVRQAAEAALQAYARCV

[2] = biological target: RNAP-sigmaA holoenzyme with RbpA;CarD;PafBC, PafB Y196A (Mycobacterium smegmatis SMR5 …, UniProt A0QSL8;P60281;A0QS66;A0QWT1;A0QW02;A0QZ11;A0R561;A4ZHT0;A0QZ41 …, ||Y196A); test: EMSA; 5 uM dT12 ssDNA; retains association with RNAP; ssDNA EMSA: 22.5 mM Hepes-KOH pH 7.8, 135 mM NaCl, 20 mM KCl, 5 mM MgCl2, 1 mM DTT, 37 C 15 min, 10 nM DNA, 0-16 uM PafBC; RNAP EMSA: 20 mM Hepes-NaOH pH 8, 100 mM K-acetate, 36 mM NaCl, 10 mM MgCl2, 2 mM DTT, 37 C 30 min; details: protein: native;recombinant;recombinant; tags: TwinStrep on RpoC; His6 removed from SigA;His6-thioredoxin removed by TEV;C-terminal Strep on PafC; chain copies: 2;1;1;1;1;1;1;1;1; label: 5' FAM on strand 1; blunt, internal non-complementary bubble 13 nt
[3] = biological target: RNAP-sigmaA holoenzyme with RbpA;PafBC WT (Mycobacterium smegmatis SMR5 …, UniProt A0QSL8;P60281;A0QS66;A0QWT1;A0QW02;A0QZ11;A4ZHT0;A0QZ41 …, |); test: EMSA; 5 uM dT12 ssDNA; PafBC shifts RNAP-DNA band; ssDNA EMSA: 22.5 mM Hepes-KOH pH 7.8, 135 mM NaCl, 20 mM KCl, 5 mM MgCl2, 1 mM DTT, 37 C 15 min, 10 nM DNA, 0-16 uM PafBC; RNAP EMSA: 20 mM Hepes-NaOH pH 8, 100 mM K-acetate, 36 mM NaCl, 10 mM MgCl2, 2 mM DTT, 37 C 30 min; details: protein: native;recombinant; tags: TwinStrep on RpoC; His6 removed from SigA;C-terminal Strep on PafC; chain copies: 2;1;1;1;1;1;1;1; label: 5' FAM on strand 1; blunt, internal non-complementary bubble 13 nt
[4] = biological target: RNAP-sigmaA holoenzyme with RbpA;CarD;PafBC, PafC WYL variant (Mycobacterium smegmatis SMR5 …, UniProt A0QSL8;P60281;A0QS66;A0QWT1;A0QW02;A0QZ11;A0R561;A4ZHT0;A0QZ41 …, ||R201A;R204A); test: EMSA; 5 uM dT12 ssDNA; efficiency similar to WT; ssDNA EMSA: 22.5 mM Hepes-KOH pH 7.8, 135 mM NaCl, 20 mM KCl, 5 mM MgCl2, 1 mM DTT, 37 C 15 min, 10 nM DNA, 0-16 uM PafBC; RNAP EMSA: 20 mM Hepes-NaOH pH 8, 100 mM K-acetate, 36 mM NaCl, 10 mM MgCl2, 2 mM DTT, 37 C 30 min; details: protein: native;recombinant;recombinant; tags: TwinStrep on RpoC; His6 removed from SigA;His6-thioredoxin removed by TEV;C-terminal Strep on PafC; chain copies: 2;1;1;1;1;1;1;1;1; label: 5' FAM on strand 1; blunt, internal non-complementary bubble 13 nt
[5] = biological target: RNAP-sigmaA holoenzyme with RbpA;CarD;PafBC, PafB WYL variant (Mycobacterium smegmatis SMR5 …, UniProt A0QSL8;P60281;A0QS66;A0QWT1;A0QW02;A0QZ11;A0R561;A4ZHT0;A0QZ41 …, ||R214A;PafB:R211A); test: EMSA; 5 uM dT12 ssDNA; PafBC variant does not join RNAP-DNA; ssDNA EMSA: 22.5 mM Hepes-KOH pH 7.8, 135 mM NaCl, 20 mM KCl, 5 mM MgCl2, 1 mM DTT, 37 C 15 min, 10 nM DNA, 0-16 uM PafBC; RNAP EMSA: 20 mM Hepes-NaOH pH 8, 100 mM K-acetate, 36 mM NaCl, 10 mM MgCl2, 2 mM DTT, 37 C 30 min; details: protein: native;recombinant;recombinant; tags: TwinStrep on RpoC; His6 removed from SigA;His6-thioredoxin removed by TEV;C-terminal Strep on PafC; chain copies: 2;1;1;1;1;1;1;1;1; label: 5' FAM on strand 1; blunt, internal non-complementary bubble 13 nt
[6] = biological target: RNAP-sigmaA holoenzyme with RbpA;CarD;PafBC, PafB R181A/R204A/R208A (Mycobacterium smegmatis SMR5 …, UniProt A0QSL8;P60281;A0QS66;A0QWT1;A0QW02;A0QZ11;A0R561;A4ZHT0;A0QZ41 …, ||R204A;R208A;PafB:R181A); test: as above; details: protein: native;recombinant;recombinant; tags: TwinStrep on RpoC; His6 removed from SigA;His6-thioredoxin removed by TEV;C-terminal Strep on PafC; chain copies: 2;1;1;1;1;1;1;1;1; label: 5' FAM on strand 1; blunt, internal non-complementary bubble 13 nt
[7] = biological target: RNAP-sigmaA holoenzyme with RbpA;CarD;PafBC WT (Mycobacterium smegmatis SMR5 …, UniProt A0QSL8;P60281;A0QS66;A0QWT1;A0QW02;A0QZ11;A0R561;A4ZHT0;A0QZ41 …, ||); test: EMSA; ssDNA …; no effect of CarD on complex formation; ssDNA EMSA: 22.5 mM Hepes-KOH pH 7.8, 135 mM NaCl, 20 mM KCl, 5 mM MgCl2, 1 mM DTT, 37 C 15 min, 10 nM DNA, 0-16 uM PafBC; RNAP EMSA: 20 mM Hepes-NaOH pH 8, 100 mM K-acetate, 36 mM NaCl, 10 mM MgCl2, 2 mM DTT, 37 C 30 min; details: protein: native;recombinant;recombinant; tags: TwinStrep on RpoC; His6 removed from SigA;His6-thioredoxin removed by TEV;C-terminal Strep on PafC; chain copies: 2;1;1;1;1;1;1;1;1; label: 5' FAM on strand 1; blunt, internal non-complementary bubble 13 nt
[8] = biological target: RNAP-sigmaA holoenzyme with RbpA (Mycobacterium smegmatis SMR5 …, UniProt A0QSL8;P60281;A0QS66;A0QWT1;A0QW02;A0QZ11 1-350;1-1169;1-1317;1-107;1-466;1-114); test: EMSA; nonspecific binding; ssDNA EMSA: 22.5 mM Hepes-KOH pH 7.8, 135 mM NaCl, 20 mM KCl, 5 mM MgCl2, 1 mM DTT, 37 C 15 min, 10 nM DNA, 0-16 uM PafBC; RNAP EMSA: 20 mM Hepes-NaOH pH 8, 100 mM K-acetate, 36 mM NaCl, 10 mM MgCl2, 2 mM DTT, 37 C 30 min; details: protein: native, tags: TwinStrep on RpoC, His6 removed from SigA, chain copies: 2;1;1;1;1;1, blunt
[9] = biological target: T1, PafBC WT; test: EMSA; ssDNA EMSA: 22.5 mM Hepes-KOH pH 7.8, 135 mM NaCl, 20 mM KCl, 5 mM MgCl2, 1 mM DTT, 37 C 15 min, 10 nM DNA, 0-16 uM PafBC; RNAP EMSA: 20 mM Hepes-NaOH pH 8, 100 mM K-acetate, 36 mM NaCl, 10 mM MgCl2, 2 mM DTT, 37 C 30 min; details: protein: recombinant, tags: C-terminal Strep on PafC, copies: 1;1, label: internal fluorescein-dT
[10] = biological target: T2, PafBC WT, cryo-EM sample (Mycobacterium smegmatis, UniProt A4ZHT0;A0QZ41 1-331;1-318); test: cryo-EM; within RNAP-sigmaA promoter complex; formaldehyde-fixed; second entry 9FNE; ssDNA EMSA: 22.5 mM Hepes-KOH pH 7.8, 135 mM NaCl, 20 mM KCl, 5 mM MgCl2, 1 mM DTT, 37 C 15 min, 10 nM DNA, 0-16 uM PafBC; RNAP EMSA: 20 mM Hepes-NaOH pH 8, 100 mM K-acetate, 36 mM NaCl, 10 mM MgCl2, 2 mM DTT, 37 C 30 min; details: protein: recombinant; copies: 1;1; single strand
T2 sequence 1: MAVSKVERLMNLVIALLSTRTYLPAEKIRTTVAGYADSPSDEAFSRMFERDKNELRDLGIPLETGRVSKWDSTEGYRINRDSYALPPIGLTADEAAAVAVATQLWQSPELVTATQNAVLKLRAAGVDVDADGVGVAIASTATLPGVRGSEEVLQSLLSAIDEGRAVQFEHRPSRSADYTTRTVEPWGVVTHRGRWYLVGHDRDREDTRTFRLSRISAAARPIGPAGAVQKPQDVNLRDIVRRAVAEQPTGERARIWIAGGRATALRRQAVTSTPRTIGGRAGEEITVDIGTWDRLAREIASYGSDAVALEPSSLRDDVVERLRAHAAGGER
T2 sequence 2: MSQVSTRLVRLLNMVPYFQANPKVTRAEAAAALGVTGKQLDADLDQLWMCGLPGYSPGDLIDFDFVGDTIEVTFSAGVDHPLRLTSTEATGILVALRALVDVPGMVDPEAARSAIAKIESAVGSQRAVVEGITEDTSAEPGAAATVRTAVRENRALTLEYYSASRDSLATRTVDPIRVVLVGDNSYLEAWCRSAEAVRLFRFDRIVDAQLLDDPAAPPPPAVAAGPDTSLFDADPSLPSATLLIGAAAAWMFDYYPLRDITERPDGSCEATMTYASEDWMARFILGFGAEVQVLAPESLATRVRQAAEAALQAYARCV

B1: dT20 ssDNA unlabeled (ssDNA)
DNA: TTTTTTTTTTTTTTTTTTTT
[1]
  binding result: binds

B2: PafBC-specific promoter with -10 bubble (dsDNA)
DNA 1: TCGTCTACTGTGGTGAAGAGTTCGACCGGACTTGTCGGTGGTCTGCTCTAACGTCACGGCCAACCGATCGGAACACC
DNA 2: GGTGTTCCGATCGGTACCGGACATGTAAAGAGCAGACCACCGACAAGTCCGGTCGAACTCTTCACCACAGTAGACGA
[2]
  binding result: binds
[3]
  binding result: binds
[4]
  binding result: binds
[5]
  binding result: no binding
[6]
  binding result: no binding
[7]
  binding result: binds
[8]; label: 5' FAM on strand 1, internal non-complementary bubble 13 nt
  binding result: binds

B3: nonspecific DNA with bubble (dsDNA)
DNA 1: GTCGTGAAGGACACCGCCGAAGCGCCCAAGACGGCCGACGAGAAAGCCGCCGAGGCCACCGGGCCCAGCAAGGTCAA
DNA 2: TTGACCTTGCTGGGCGTCAGCATGCGAACGGCTTTCTCGTCGGCCGTCTTGGGCGCTTCGGCGGTGTCCTTCACGAC
[8]; label: 5' FAM on strand 1, internal non-complementary bubble
  binding result: binds

B4: housekeeping promoter with -10 bubble (dsDNA)
DNA 1: CCCCGTTTTGGGGCAGATGCGATTCTGAAATACTGCTTTGTCTGGCTTGTCAAGTCGCTCTGGACCGGGTTGTTTTC
DNA 2: GAAAACAACCCGGTCCAGAGCGACTTGACAAGCCAGACAAAGCAGTATTAAGCTGGCAGGGTTGCCCCAAAACGGGG
[8]; label: 5' FAM on strand 2, internal non-complementary bubble
  binding result: binds

B5: hairpin DNA control (structured_DNA)
DNA: GGGCCCGGGCCCGGTATATCCGGGCCCGGGCCC
[9]; hairpin, 14 bp stem, 5 nt loop
  binding result: no binding

B6: cryo-EM ssDNA ligand (ssDNA)
DNA: TTGTTGTTGTT
[10]
  binding result: binds

B7: blocked end ssDNA (dT12 between two hairpins) (structured_DNA)
DNA: GGGCCCGGGCCCGGTATATCCGGGCCCGGGCCCTTTTTTTTTTTTCCCGGGCCCGGGCCTATATGGCCCGGGCCCGGG
[9]; two hairpins, 14 bp stems, 5 nt loops
  binding result: binds
